Results from patent US9605283B2, “Microorganism modified for the production of 1,3-propanediol” (INSTITUT NATIONAL DES SCIENCES APPLIQUÉES, priority 2012, dated 2017).
Residue numbers refer to the chain shown, from its start. Numbers in names are those of the source.

B1: Ec-YqhD: alcohol dehydrogenase yqhD from Escherichia coli, used as PDO dehydrogenase (protein, UniProt Q46856 1-387, looked up)
NADPH-dependent aldehyde …: MNNFNLHTPTRILFGKGAIAGLREQIPHDARVLITYGGGSVKKTGVLDQVLDALKGMDVLEFGGIEPNPAYETLMNAVKLVREQKVTFLLAVGGGSVLDGTKFIAAAANYPENIDPWHILQTGGKEIKSAIPMGCVLTLPATGSESNAGAVISRKTTGDKQAFHSAHVQPVFAVLDPVYTYTLPPRQVANGVVDAFVHTVEQYVTKPVDAKIQDRFAEGILLTLIEDGPKALKEPENYDVRANVMWAATQALNGLIGAGVPQDWATHMLGHELTAMHGLDHAQTLAIVLPALWNEKRDTKRAKLLQYAERVWNITEGSDDERIDAAIAATRNFFEQLGVPTHLSDYGLDGSSIPALLKKLEEHGMTQLGENHDITLDVSRRIYEAAR
B2: Ll-KdcA: branched-chain alpha-ketoacid decarboxylase from L. lactis, SEQ ID No. 130 (protein, listed as Lactococcus lactis)
chain: MYTVGDYLLDRLHELGIEEIFGVPGDYNLQFLDQIISREDMKWIGNANELNASYMADGYARTKKAAAFLTTFGVGELSAINGLAGSYAENLPVVEIVGSPTSKVQNDGKFVHHTLADGDFKHFMKMHEPVTAARTLLTAENATYEIDRVLSQLLKERKPVYINLPVDVAAAKAEKPALSLEKESSTTNTTEQVILSKIEESLKNAQKPVVIAGHEVISFGLEKTVTQFVSETKLPITTLNFGKSAVDESLPSFLGIYNGKLSEISLKNFVESADFILMLGVKLTDSSTGAFTHHLDENKMISLNIDEGIIFNKVVEDFDFRAVVSSLSELKGIEYEGQYIDKQYEEFIPSSAPLSQDRLWQAVESLTQSNETIVAEQGTSFFGASTIFLKSNSRFIGQPLWGSIGYTFPAALGSQIADKESRHLLFIGDGSLQLTVQELGLSIREKLNPICFIINNDGYTVEREIHGPTQSYNDIPMWNYSKLPETFGATEDRVVSKIVRTENEFVSVMKEAQADVNRMYWIELVLEKEDAPKLLKKMGKLFAEQNK
B3: Ll-KdcA V461I: L. lactis KdcA mutant V461I, SEQ ID No. 198 (protein, listed as Lactococcus lactis)
chain: B2 chain with V461I
B4: Ll-KdcA G402S: L. lactis KdcA mutant G402S, SEQ ID No. 196 (protein, listed as Lactococcus lactis)
chain: B2 chain with G402S

Legend:
Format in all cases: biochemical
[1] = PDO dehydrogenase activity (PDO-dependent reduction of NADP); conditions: 100 mM 1,3-propanediol, 10 mM NADP, 37° C., pH 8
Protocol: PDO dehydrogenase activity was assayed by following the PDO-dependent reduction of NADP. 1,3-propanediol+NADP^+→3-hydroxypropional+NADPH Reaction scheme:
Reactions were started by adding 100 mM 1,3-propanediol (PDO, Sigma).

[2] = OHB decarboxylase activity (coupled to YqhD, NADPH); conditions: for Effect of mutation on activity and/or specificity for OHB (in words): versus wild-type enzyme
Protocol: (§1) OHB decarboxylase activity was assayed by coupling the decarboxylase activity to the NADPH-dependent reduction of the released 3-hydroxypropanal by purified aldehyde reductase, YqhD, from E. coli. The decarboxylation of pyruvate was coupled to the NADH-dependent reduction of acetaldehyde catalysed by yeast alcohol dehydrogenase. Branched-chain alpha-ketoacid decarboxylase activity was measured on 4-methyl-2-oxovaleric acid by coupling to the NADH-dependent reduction of 3-methylbutanal catalysed by horse liver alcohol dehydrogenase. […] Reactions were started by adding 20 mM 2-oxo-4-hydroxybutyrate (OHB), 10 mM 4-methyl-2-oxovaleric acid (MOV), or 5 mM pyruvate.

[3] = Branched-chain alpha-ketoacid decarboxylase activity (coupled to horse liver alcohol dehydrogenase)
Protocol: as §1

[4] = activity measured at 20 mM OHB, Table 10
[5] = activity measured at 10 mM MOV (KdcA mutants), Table 10

Molecule | PDO dehydrogenase activity [1] | Max. specific activity, OHB ([2]; when not saturated, activity estimated at 20 mM substrate, Table 8) | OHB decarboxylase activity (in words) ([2]; wild-type enzymes) | Max. specific activity, Natural substrate ([3]; natural substrate 4-methyl-2-oxovaleric, Table 8) | Max. specific activity, OHB [2, 4] | Effect of mutation on activity and/or specificity for OHB (in words) [2] | Max. specific activity, Natural substrate [3, 5]
B1 | 0.15 µmol/min/mg | – | – | – | – | – | –
B2 | – | 0.08 µmol/mg/min | significant OHB decarboxylase activity | 4 µmol/mg/min | – | – | –
B3 | – | – | – | – | 0.24 µmol/mg/min | increased activity and/or specificity for OHB | 2.76 µmol/mg/min
B4 | – | – | – | – | 0.09 µmol/mg/min | increased activity and/or specificity for OHB | 3.1 µmol/mg/min
